The source of these data is paper PMC2212946.

The target in the experiment is Fc fragment of IgE (domains Cε2-4) (human). Kind of experiment: SPR. On the technique in general: In SPR one partner is held on a chip, and binding of the other changes the refractive index at the surface.
Fc fragment of IgE (domains Cε2-4) (human), sequence (P01854 whole entry, the tested form may be a part): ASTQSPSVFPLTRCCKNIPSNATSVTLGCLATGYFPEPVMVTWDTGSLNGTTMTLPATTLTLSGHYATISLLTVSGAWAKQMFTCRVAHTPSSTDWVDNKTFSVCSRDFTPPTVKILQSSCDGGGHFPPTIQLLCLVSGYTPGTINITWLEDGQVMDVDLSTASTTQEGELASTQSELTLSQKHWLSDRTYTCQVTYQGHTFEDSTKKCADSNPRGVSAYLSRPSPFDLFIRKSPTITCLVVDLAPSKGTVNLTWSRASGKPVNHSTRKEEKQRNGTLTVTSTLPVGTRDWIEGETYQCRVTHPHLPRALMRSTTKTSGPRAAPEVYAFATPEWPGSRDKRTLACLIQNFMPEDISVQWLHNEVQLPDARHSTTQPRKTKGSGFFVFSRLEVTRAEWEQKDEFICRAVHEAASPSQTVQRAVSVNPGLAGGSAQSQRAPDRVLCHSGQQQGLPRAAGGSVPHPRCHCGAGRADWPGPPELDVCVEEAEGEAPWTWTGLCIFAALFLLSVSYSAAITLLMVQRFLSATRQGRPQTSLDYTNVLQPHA

B1: derCD23, recombinant version of the Der p I fragment of human CD23 (FcεRII), C-type lectin domain (domain or fragment)
chain: SGFVCNTCPEKWINFQRKCYYFGKGTKQWVHARYACDDMEGQLVSIHSPEEQDFLTKHASHTGSWIGLRNLDLKGEFIWVDGSHVDYSNWAPGEPTSRSQGEDCVMMRGSGRWNDAFCDRKLGAWVCDRLATCTPPASEGSAE
For orientation: Kd means the constant that tells how readily two partners part at equilibrium. High values mean weaker binding, low ones tighter binding. On to B1, for which the Kd worked out at 1.3 µM.

B2: exCD23, recombinant soluble CD23 fragment containing the entire extracellular sequence (domain or fragment)
chain: DTTQSLKQLEERAARNVSQVSKNLESHHGDQMAQKSQSTQISQELEELRAEQQRLKSQDLELSWNLNGLQADLSSFKSQELNERNEASDLLERLREEVTKLRMELQVSSGFVCNTCPEKWINFQRKCYYFGKGTKQWVHARYACDDMEGQLVSIHSPEEQDFLTKHASHTGSWIGLRNLDLKGEFIWVDGSHVDYSNWAPGEPTSRSQGEDCVMMRGSGRWNDAFCDRKLGAWVCDRLATCTPPASEGSAESMGPDSRPDPDGRLPTPSAPLHS
In the case of B2, the KD, first of two components stood at 1.1 µM; the KD, second of two components was 0.039 µM; the koff, major component turned out to be 0.0005 s⁻¹; the koff, minor component was found to be 0.04 s⁻¹.
